According to patent US20110105394A1 (Novo Nordisk, published 2011):
*1 amine or outer side, *2 acyl side, *3 side chain or, on linkers, in order; H or OH if unused. Bridges are numbered along the chain shown (N, C = ends). Where no end group is shown, it is not given here. Side-chain parts run from the residue outwards. The star is where a group is joined. X2 = (S)‑4‑Carboxy‑4‑(19-carboxynonadecanoylamino)butyryl, O=C(O)CCCCCCCCCCCCCCCCCCC(=O)N[C@@H](CCC(=O)*)C(=O)O; C20 diacid = O=C(O)CCCCCCCCCCCCCCCCCCC(=O)*; γGlu = O=C(O)[C@H](CCC(=O)[*:2])N[*:1]; AEEA = NCCOCCOCC(=O)O

T1: Amylin 3(a) receptor (human calcitonin receptor (CTa) with RAMP-3) (human, UniProt P30988 25-474; O60896 24-148, limits assumed)
T1 sequence (looked up) 1: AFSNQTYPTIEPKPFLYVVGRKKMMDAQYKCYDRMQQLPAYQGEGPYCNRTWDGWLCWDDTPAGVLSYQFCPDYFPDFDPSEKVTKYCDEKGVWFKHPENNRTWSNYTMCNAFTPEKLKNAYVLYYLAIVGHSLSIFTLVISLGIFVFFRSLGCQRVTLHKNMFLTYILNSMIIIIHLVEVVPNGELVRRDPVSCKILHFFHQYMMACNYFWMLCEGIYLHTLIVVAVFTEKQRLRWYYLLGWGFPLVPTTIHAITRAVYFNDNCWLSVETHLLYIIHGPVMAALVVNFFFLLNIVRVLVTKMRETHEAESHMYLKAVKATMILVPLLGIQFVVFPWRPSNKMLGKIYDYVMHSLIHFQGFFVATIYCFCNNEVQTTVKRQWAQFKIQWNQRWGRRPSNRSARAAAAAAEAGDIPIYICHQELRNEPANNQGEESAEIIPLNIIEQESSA
T1 sequence (looked up) 2: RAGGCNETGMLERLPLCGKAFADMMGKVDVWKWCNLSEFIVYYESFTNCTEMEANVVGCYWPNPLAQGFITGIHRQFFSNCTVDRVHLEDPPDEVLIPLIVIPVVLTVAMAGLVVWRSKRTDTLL

B1: N-alpha-[2-(2-{2-[4-(S)-Carboxy-4-(19-carboxynonadecanoylamino)butyrylamino]ethoxy}ethoxy)acetyl]-Arg-[Arg17]-pramlintide (peptide)
peptide: {C20 diacid-γGlu-AEEA}-RKCNTATCATQRLANFLRHSSNNFGPILPPTNVGSNTY-NH2
modifications: disulfide 3-8
SMILES: CC[C@H](C)[C@H](NC(=O)[C@@H]1CCCN1C(=O)CNC(=O)[C@H](Cc1ccccc1)NC(=O)[C@H](CC(N)=O)NC(=O)[C@H](CC(N)=O)NC(=O)[C@H](CO)NC(=O)[C@H](CO)NC(=O)[C@H](Cc1c[nH]cn1)NC(=O)[C@H](CCCNC(=N)N)NC(=O)[C@H](CC(C)C)NC(=O)[C@H](Cc1ccccc1)NC(=O)[C@H](CC(N)=O)NC(=O)[C@H](C)NC(=O)[C@H](CC(C)C)NC(=O)[C@H](CCCNC(=N)N)NC(=O)[C@H](CCC(N)=O)NC(=O)[C@@H](NC(=O)[C@H](C)NC(=O)[C@@H]1CSSC[C@H](NC(=O)[C@H](CCCCN)NC(=O)[C@H](CCCNC(=N)N)NC(=O)COCCOCCNC(=O)CC[C@H](NC(=O)CCCCCCCCCCCCCCCCCCC(=O)O)C(=O)O)C(=O)N[C@@H](CC(N)=O)C(=O)N[C@@H]([C@@H](C)O)C(=O)N[C@@H](C)C(=O)N[C@@H]([C@@H](C)O)C(=O)N1)[C@@H](C)O)C(=O)N[C@@H](CC(C)C)C(=O)N1CCC[C@H]1C(=O)N1CCC[C@H]1C(=O)N[C@H](C(=O)N[C@@H](CC(N)=O)C(=O)N[C@H](C(=O)NCC(=O)N[C@@H](CO)C(=O)N[C@@H](CC(N)=O)C(=O)N[C@H](C(=O)N[C@@H](Cc1ccc(O)cc1)C(N)=O)[C@@H](C)O)C(C)C)[C@@H](C)O
B2: N-alpha-[(S)-4-Carboxy-4-(19-carboxynonadecanoylamino)butyryl]-Arg-[Pro17]-pramlintide (peptide)
peptide: X2-RKCNTATCATQRLANFLPHSSNNFGPILPPTNVGSNTY-NH2
modifications: disulfide 3-8
SMILES: CC[C@H](C)[C@H](NC(=O)[C@@H]1CCCN1C(=O)CNC(=O)[C@H](Cc1ccccc1)NC(=O)[C@H](CC(N)=O)NC(=O)[C@H](CC(N)=O)NC(=O)[C@H](CO)NC(=O)[C@H](CO)NC(=O)[C@H](Cc1c[nH]cn1)NC(=O)[C@@H]1CCCN1C(=O)[C@H](CC(C)C)NC(=O)[C@H](Cc1ccccc1)NC(=O)[C@H](CC(N)=O)NC(=O)[C@H](C)NC(=O)[C@H](CC(C)C)NC(=O)[C@H](CCCNC(=N)N)NC(=O)[C@H](CCC(N)=O)NC(=O)[C@@H](NC(=O)[C@H](C)NC(=O)[C@@H]1CSSC[C@H](NC(=O)[C@H](CCCCN)NC(=O)[C@H](CCCNC(=N)N)NC(=O)CC[C@H](NC(=O)CCCCCCCCCCCCCCCCCCC(=O)O)C(=O)O)C(=O)N[C@@H](CC(N)=O)C(=O)N[C@@H]([C@@H](C)O)C(=O)N[C@@H](C)C(=O)N[C@@H]([C@@H](C)O)C(=O)N1)[C@@H](C)O)C(=O)N[C@@H](CC(C)C)C(=O)N1CCC[C@H]1C(=O)N1CCC[C@H]1C(=O)N[C@H](C(=O)N[C@@H](CC(N)=O)C(=O)N[C@H](C(=O)NCC(=O)N[C@@H](CO)C(=O)N[C@@H](CC(N)=O)C(=O)N[C@H](C(=O)N[C@@H](Cc1ccc(O)cc1)C(N)=O)[C@@H](C)O)C(C)C)[C@@H](C)O
B3: N-alpha-[(S)-4-Carboxy-4-(19-carboxynonadecanoylamino)butyryl]-Arg-[Ser17]-pramlintide (peptide)
peptide: X2-RKCNTATCATQRLANFLSHSSNNFGPILPPTNVGSNTY-NH2
modifications: disulfide 3-8
SMILES: CC[C@H](C)[C@H](NC(=O)[C@@H]1CCCN1C(=O)CNC(=O)[C@H](Cc1ccccc1)NC(=O)[C@H](CC(N)=O)NC(=O)[C@H](CC(N)=O)NC(=O)[C@H](CO)NC(=O)[C@H](CO)NC(=O)[C@H](Cc1c[nH]cn1)NC(=O)[C@H](CO)NC(=O)[C@H](CC(C)C)NC(=O)[C@H](Cc1ccccc1)NC(=O)[C@H](CC(N)=O)NC(=O)[C@H](C)NC(=O)[C@H](CC(C)C)NC(=O)[C@H](CCCNC(=N)N)NC(=O)[C@H](CCC(N)=O)NC(=O)[C@@H](NC(=O)[C@H](C)NC(=O)[C@@H]1CSSC[C@H](NC(=O)[C@H](CCCCN)NC(=O)[C@H](CCCNC(=N)N)NC(=O)CC[C@H](NC(=O)CCCCCCCCCCCCCCCCCCC(=O)O)C(=O)O)C(=O)N[C@@H](CC(N)=O)C(=O)N[C@@H]([C@@H](C)O)C(=O)N[C@@H](C)C(=O)N[C@@H]([C@@H](C)O)C(=O)N1)[C@@H](C)O)C(=O)N[C@@H](CC(C)C)C(=O)N1CCC[C@H]1C(=O)N1CCC[C@H]1C(=O)N[C@H](C(=O)N[C@@H](CC(N)=O)C(=O)N[C@H](C(=O)NCC(=O)N[C@@H](CO)C(=O)N[C@@H](CC(N)=O)C(=O)N[C@H](C(=O)N[C@@H](Cc1ccc(O)cc1)C(N)=O)[C@@H](C)O)C(C)C)[C@@H](C)O
B4: N-alpha-[2-(2-{2-[4-(S)-Carboxy-4-(19-carboxynonadecanoylamino)butyrylamino]ethoxy}ethoxy)acetyl]-Arg-[Ala17]-pramlintide (peptide)
peptide: {C20 diacid-γGlu-AEEA}-RKCNTATCATQRLANFLAHSSNNFGPILPPTNVGSNTY-NH2
modifications: disulfide 3-8
SMILES: CC[C@H](C)[C@H](NC(=O)[C@@H]1CCCN1C(=O)CNC(=O)[C@H](Cc1ccccc1)NC(=O)[C@H](CC(N)=O)NC(=O)[C@H](CC(N)=O)NC(=O)[C@H](CO)NC(=O)[C@H](CO)NC(=O)[C@H](Cc1c[nH]cn1)NC(=O)[C@H](C)NC(=O)[C@H](CC(C)C)NC(=O)[C@H](Cc1ccccc1)NC(=O)[C@H](CC(N)=O)NC(=O)[C@H](C)NC(=O)[C@H](CC(C)C)NC(=O)[C@H](CCCNC(=N)N)NC(=O)[C@H](CCC(N)=O)NC(=O)[C@@H](NC(=O)[C@H](C)NC(=O)[C@@H]1CSSC[C@H](NC(=O)[C@H](CCCCN)NC(=O)[C@H](CCCNC(=N)N)NC(=O)COCCOCCNC(=O)CC[C@H](NC(=O)CCCCCCCCCCCCCCCCCCC(=O)O)C(=O)O)C(=O)N[C@@H](CC(N)=O)C(=O)N[C@@H]([C@@H](C)O)C(=O)N[C@@H](C)C(=O)N[C@@H]([C@@H](C)O)C(=O)N1)[C@@H](C)O)C(=O)N[C@@H](CC(C)C)C(=O)N1CCC[C@H]1C(=O)N1CCC[C@H]1C(=O)N[C@H](C(=O)N[C@@H](CC(N)=O)C(=O)N[C@H](C(=O)NCC(=O)N[C@@H](CO)C(=O)N[C@@H](CC(N)=O)C(=O)N[C@H](C(=O)N[C@@H](Cc1ccc(O)cc1)C(N)=O)[C@@H](C)O)C(C)C)[C@@H](C)O
B5: N-alpha-[(S)-4-Carboxy-4-(19-carboxynonadecanoylamino)butyryl]-Arg-[Ala17]-pramlintide (peptide)
peptide: X2-RKCNTATCATQRLANFLAHSSNNFGPILPPTNVGSNTY-NH2
modifications: disulfide 3-8
SMILES: CC[C@H](C)[C@H](NC(=O)[C@@H]1CCCN1C(=O)CNC(=O)[C@H](Cc1ccccc1)NC(=O)[C@H](CC(N)=O)NC(=O)[C@H](CC(N)=O)NC(=O)[C@H](CO)NC(=O)[C@H](CO)NC(=O)[C@H](Cc1c[nH]cn1)NC(=O)[C@H](C)NC(=O)[C@H](CC(C)C)NC(=O)[C@H](Cc1ccccc1)NC(=O)[C@H](CC(N)=O)NC(=O)[C@H](C)NC(=O)[C@H](CC(C)C)NC(=O)[C@H](CCCNC(=N)N)NC(=O)[C@H](CCC(N)=O)NC(=O)[C@@H](NC(=O)[C@H](C)NC(=O)[C@@H]1CSSC[C@H](NC(=O)[C@H](CCCCN)NC(=O)[C@H](CCCNC(=N)N)NC(=O)CC[C@H](NC(=O)CCCCCCCCCCCCCCCCCCC(=O)O)C(=O)O)C(=O)N[C@@H](CC(N)=O)C(=O)N[C@@H]([C@@H](C)O)C(=O)N[C@@H](C)C(=O)N[C@@H]([C@@H](C)O)C(=O)N1)[C@@H](C)O)C(=O)N[C@@H](CC(C)C)C(=O)N1CCC[C@H]1C(=O)N1CCC[C@H]1C(=O)N[C@H](C(=O)N[C@@H](CC(N)=O)C(=O)N[C@H](C(=O)NCC(=O)N[C@@H](CO)C(=O)N[C@@H](CC(N)=O)C(=O)N[C@H](C(=O)N[C@@H](Cc1ccc(O)cc1)C(N)=O)[C@@H](C)O)C(C)C)[C@@H](C)O
B6: N-alpha-[(S)-4-Carboxy-4-(19-carboxynonadecanoylamino)butyryl]-Arg-[Arg17]-pramlintide (peptide)
peptide: X2-RKCNTATCATQRLANFLRHSSNNFGPILPPTNVGSNTY-NH2
modifications: disulfide 3-8
SMILES: CC[C@H](C)[C@H](NC(=O)[C@@H]1CCCN1C(=O)CNC(=O)[C@H](Cc1ccccc1)NC(=O)[C@H](CC(N)=O)NC(=O)[C@H](CC(N)=O)NC(=O)[C@H](CO)NC(=O)[C@H](CO)NC(=O)[C@H](Cc1c[nH]cn1)NC(=O)[C@H](CCCNC(=N)N)NC(=O)[C@H](CC(C)C)NC(=O)[C@H](Cc1ccccc1)NC(=O)[C@H](CC(N)=O)NC(=O)[C@H](C)NC(=O)[C@H](CC(C)C)NC(=O)[C@H](CCCNC(=N)N)NC(=O)[C@H](CCC(N)=O)NC(=O)[C@@H](NC(=O)[C@H](C)NC(=O)[C@@H]1CSSC[C@H](NC(=O)[C@H](CCCCN)NC(=O)[C@H](CCCNC(=N)N)NC(=O)CC[C@H](NC(=O)CCCCCCCCCCCCCCCCCCC(=O)O)C(=O)O)C(=O)N[C@@H](CC(N)=O)C(=O)N[C@@H]([C@@H](C)O)C(=O)N[C@@H](C)C(=O)N[C@@H]([C@@H](C)O)C(=O)N1)[C@@H](C)O)C(=O)N[C@@H](CC(C)C)C(=O)N1CCC[C@H]1C(=O)N1CCC[C@H]1C(=O)N[C@H](C(=O)N[C@@H](CC(N)=O)C(=O)N[C@H](C(=O)NCC(=O)N[C@@H](CO)C(=O)N[C@@H](CC(N)=O)C(=O)N[C@H](C(=O)N[C@@H](Cc1ccc(O)cc1)C(N)=O)[C@@H](C)O)C(C)C)[C@@H](C)O

biological target: T1, Amylin 3(a) receptor (human calcitonin …); experiment: cell-based or functional assay

Binder | Potency Luciferase
B1 | 0.1 nM
B2 | 2 nM
B3 | 0.1 nM
{C20 diacid-4‑aminobutyryl}-RKCNTATCATQRLANFLRHSSNNFGPILPPTNVGSNTY-NH2 (disulfide 3-8) [N-alpha-[4-(19-Carboxynonadecanoylamino)butyryl]-Arg-[Arg17]-pramlintide] | 0.03 nM
B4 | 0.08 nM
B5 | 0.1 nM
KCK([Glu-Arg-Glu-Glu-C20 diacid])TATCATQRLANFLHHSSDNFGPILPPTNVGSNTY-NH2 (disulfide 2-7) [N-epsilon3-(19-carboxynonadecanoyl-Glu-Glu-Arg-Glu)-[Lys3,His17,Asp21]-pramlintide] | 0.9 nM
B6 | 0.1 nM
